Assay results from publication doi:10.1101/2023.06.01.543357, “Novel histones and histone variant families in prokaryotes” (bioRxiv, 2023).

Molecular target: the molecule itself
Test: crystal structure; HTkC at 4.0 mg/mL in 50 mM Tris-HCl pH 7.0, 100 mM KCl, 10% glycerol; sitting drop vapour diffusion, reservoir 0.01 M trisodium citrate, 33% (w/v) PEG 6000; space group P212121, 1.84 Å; four monomers in the asymmetric unit; dimers to tetramer

B1: face-to-face (FtF) histone from Thermococcus kodakarensis (HTkC) (natural protein)
chain: MAEMLVKSKVKEFVKSVDPEMRVSPEFYDALEAEVKALVEKAIKRAQAEGRKTLYARHV
notes: Face-to-face histone HTkC of Thermococcus kodakarensis, product of gene TK1040 (synthesised gene cloned into pET30b, plasmid pRD503); purification was by heat, heparin and size exclusion; The crystal holds four monomers (two dimers) in the asymmetric unit, forming a torus-shaped tetramer; also called FtF histone HTkC; TK1040; source: E. coli BL21(DE3)pLysS, purified (heat step at 70 °C, HiTrap …)
- stoichiometry N: 4
